Reference: paper PMC11297306 (Nature Communications, 2024)

Target: VLDLRLBD-Fc fusion protein (human, UniProt P98155-1 31-355)
Assay: BLI; […] (2.6 µM) […]; kinetic buffer with 2 mM CaCl2
Conditions: both partners purified

B1: receptor-associated protein (RAP) (natural protein, human, UniProt P30533 35-353, looked up)
chain: YSREKNQPKPSPKRESGEEFRMEKLNQLWEKAQRLHLPPVRLAELHADLKIQERDELAWKKLKLDGLDEDGEKEARLIRNLNVILAKYGLDGKKDARQVTSNSLSGTQEDGLDDPRLEKLWHKAKTSGKFSGEELDKLWREFLHHKEKVHEYNVLLETLSRTEEIHENVISPSDLSDIKGSVLHSRHTELKEKLRSINQGLDRLRRVSHQGYSTEAEFEEPRVIDLWDLAQSANLTDKELEAFREELKHFEAKIEKHNHYQKQLEIAHEKLRHAESVGDGERVSRSREKHALLEGRTKELGYTVKKHLQDLSGRISRAR
B1: binds.
